Measurements as given in patent publication US12269859B2, “Synthetic immune receptors and methods of use thereof” (Angeles Therapeutics, Inc., priority 2016, dated 2025).

B1: 091216-L03 (protein)
chain: MALPVTALLLPLALLLHAARPLEGKPIPNPLLGLDSTGSGEDLKNVFPPEVAVFEPSKAEIAHTQKATLVCLATGFYPDHVELSWWVNGKEVHSGVCTDPQPLKEQPALNDSRYCLSSRLRVSATFWQNPRNHFRCQVQFYGLSENDEWTQDRAKPVTQIVSAEAWGRADCGITSASYHQGVLSATILYEILLGKATLYAVLVSALVLMAMVKRKDSRGRAKRSGSGATNFSLLKQAGDVEENPGPTSTMALPVTALLLPLALLLHAARPDIQMTQSPSSLSASVGDRVTITCKASQDVGIAVAWYQQKPGKVPKLLIYWASTRHTGVPDRFSGSGSGTDFTLTISSLQPEDVATYYCQQYSSYPYTFGQGTKVEIKGGGGSGGGGSGGGGSEVQLVESGGGLVQPGGSLRLSCAASGFDFSRYWMSWVRQAPGKGLEWIGEINPDSSTINYAPSLKDKFIISRDNAKNSLYLQMNSLRAEDTAVYYCARPDGNYWYFDVWGQGTLVTVSSTREQKLISEEDGSGIQNPDPAVYQLRDSKSSDKSVCLFTDFDSQTNVSQSKDSDVYITDKCVLDMRSMDFKSNSAVAWSNKSDFACANAFNNSIIPEDTFFPSSDVPCDVKLVEKSFETDTNLNFQNLSVIGFRILLLKVAGFNLLMTLRLWSSRAKRSGSGVKQTLNFDLLKLAGDVESNPGPSRGHMTEYKPTVRLATRDDVPRAVRTLAAAFADYPATRHTVDPDRHIERVTELQELFLTRVGLDIGKVWVADDGAAVAVWTTPESVEAGAVFAEIGPRMAELSGSRLAAQQQMEGLLAPHRPKEPAWFLATVGVSPDHQGKGLGSAVVLPGVEAAERAGVPAFLETSAPRNLPFYERLGFTVTADVEVPEGPRTWCMTRKPGA
modifications: Synthetic Immune Receptor (SIR)
B2: 012517-P12 (protein)
chain: MALPVTALLLPLALLLHAARPLEGKPIPNPLLGLDSTGSGEDLKNVFPPEVAVFEPSKAEIAHTQKATLVCLATGFYPDHVELSWWVNGKEVHSGVCTDPQPLKEQPALNDSRYCLSSRLRVSATFWQNPRNHFRCQVQFYGLSENDEWTQDRAKPVTQIVSAEAWGRADCGITSASYHQGVLSATILYEILLGKATLYAVLVSALVLMAMVKRKDSRGRAKRSGSGATNFSLLKQAGDVEENPGPTSMALPVTALLLPLALLLHAARPDIVMTQSHKFMSTSVGDRVSITCKASQDVSTAVAWYQQKPGQSPKLLIYSASYRYTGVPDRFTGSGSGTDFTFTISSVQAEDLAVYYCQQHYSTPPYTFGGGTKLEIKGGGGSGGGGSGGGGSQVQLQQSGPELVKPGASVKISCKASGYAFSSSWMNWVKQRPGQGLEWIGRIYPGDGDTKYNGKFKGKATLTADKSSSTAYMQLSSLTSVDSAVYFCARSTMIATGAMDYWGQGTSVTVSSTREQKLISEEDGSGIQNPDPAVYQLRDSKSSDKSVCLFTDFDSQTNVSQSKDSDVYITDKCVLDMRSMDFKSNSAVAWSNKSDFACANAFNNSIIPEDTFFPSSDVPCDVKLVEKSFETDTNLNFQNLSVIGFRILLLKVAGFNLLMTLRLWSSRAKRSGSGVKQTLNFDLLKLAGDVESNPGPSRGHMTEYKPTVRLATRDDVPRAVRTLAAAFADYPATRHTVDPDRHIERVTELQELFLTRVGLDIGKVWVADDGAAVAVWTTPESVEAGAVFAEIGPRMAELSGSRLAAQQQMEGLLAPHRPKEPAWFLATVGVSPDHQGKGLGSAVVLPGVEAAERAGVPAFLETSAPRNLPFYERLGFTVTADVEVPEGPRTWCMTRKPGA
B3: 090116-L01 (protein)
chain: MALPVTALLLPLALLLHAARPLEGKPIPNPLLGLDSTGSGEDLKNVFPPEVAVFEPSKAEIAHTQKATLVCLATGFYPDHVELSWWVNGKEVHSGVCTDPQPLKEQPALNDSRYCLSSRLRVSATFWQNPRNHFRCQVQFYGLSENDEWTQDRAKPVTQIVSAEAWGRADCGITSASYHQGVLSATILYEILLGKATLYAVLVSALVLMAMVKRKDSRGRAKRSGSGATNFSLLKQAGDVEENPGPTSMALPVTALLLPLALLLHAARPDIVMTQSQKSMSTSVGDRVSITCKASQDVITGVAWYQQKPGQSPKLLIYSASYRYTGVPDRFTGSGSGTDFTFTISNVQAEDLAVYYCQQHYSTPLTFGAGTKLELKGGGGSGGGGSGGGGSQVQLQQPGAELVRPGASVKLSCKASGYSFTTYWMNWVKQRPGQGLEWIGMIHPSDSETRLNQKFKDKATLTVDKSSSTAYMQLSSPTSEDSAVYYCARSTMIATRAMDYWGQGTSVTVSSTREQKLISEEDGSGIQNPDPAVYQLRDSKSSDKSVCLFTDFDSQTNVSQSKDSDVYITDKCVLDMRSMDFKSNSAVAWSNKSDFACANAFNNSIIPEDTFFPSSDVPCDVKLVEKSFETDTNLNFQNLSVIGFRILLLKVAGFNLLMTLRLWSSRAKRSGSGVKQTLNFDLLKLAGDVESNPGPSRGHMTEYKPTVRLATRDDVPRAVRTLAAAFADYPATRHTVDPDRHIERVTELQELFLTRVGLDIGKVWVADDGAAVAVWTTPESVEAGAVFAEIGPRMAELSGSRLAAQQQMEGLLAPHRPKEPAWFLATVGVSPDHQGKGLGSAVVLPGVEAAERAGVPAFLETSAPRNLPFYERLGFTVTADVEVPEGPRTWCMTRKPGA
modifications: Synthetic Immune Receptor (SIR)
B4: 012517-B12 (protein)
chain: MALPVTALLLPLALLLHAARPLEGKPIPNPLLGLDSTGSGEDLKNVFPPEVAVFEPSKAEIAHTQKATLVCLATGFYPDHVELSWWVNGKEVHSGVCTDPQPLKEQPALNDSRYCLSSRLRVSATFWQNPRNHFRCQVQFYGLSENDEWTQDRAKPVTQIVSAEAWGRADCGITSASYHQGVLSATILYEILLGKATLYAVLVSALVLMAMVKRKDSRGRAKRSGSGATNFSLLKQAGDVEENPGPTSMALPVTALLLPLALLLHAARPDVVMTQTPLSLSVTPGQPASISCRSSQSLVHNNGNTYLHWYLQKPGQSPQLLIYKVSNRFSGVPDRFSGSGSGTDFTLKISRVEAEDVGVYFCSQSTHVPPYTFGGGTKVEIKGGGGSGGGGSGGGGSEVQLVESGGGLVQPGGSLRLSCAASGFTFSDYYMAWVRQAPGKGLEWVAEINYDGSSTYYVDSVKGRFTISRDNAKNSLYLQMNSLRAEDTAVYYCARDRGFYFDYWGQGTTVTVSSTREQKLISEEDGSGIQNPDPAVYQLRDSKSSDKSVCLFTDFDSQTNVSQSKDSDVYITDKCVLDMRSMDFKSNSAVAWSNKSDFACANAFNNSIIPEDTFFPSSDVPCDVKLVEKSFETDTNLNFQNLSVIGFRILLLKVAGFNLLMTLRLWSSRAKRSGSGVKQTLNFDLLKLAGDVESNPGPSRGHMTEYKPTVRLATRDDVPRAVRTLAAAFADYPATRHTVDPDRHIERVTELQELFLTRVGLDIGKVWVADDGAAVAVWTTPESVEAGAVFAEIGPRMAELSGSRLAAQQQMEGLLAPHRPKEPAWFLATVGVSPDHQGKGLGSAVVLPGVEAAERAGVPAFLETSAPRNLPFYERLGFTVTADVEVPEGPRTWCMTRKPGA
B5: 110116-L01 (protein)
chain: MALPVTALLLPLALLLHAARPLEQKLISEEDLGSGDRPDPAVYQLRDSKSSDKSVCLFTDFDSQTNVSQSKDSDVYITDKCVLDMRSMDFKSNSAVAWSNKSDFACANAFNNSIIPEDTFFPSPESSCDVKLVEKSFETDTNLNFQNLSVIGFRILLLKVAGFNLLMTLRLWSSSSRAKRSGSGVKQTLNFDLLKLAGDVESNPGPTSMALPVTALLLPLALLLHAARPDIVMTQSQKSMSTSVGDRVSITCKASQDVITGVAWYQQKPGQSPKLLIYSASYRYTGVPDRFTGSGSGTDFTFTISNVQAEDLAVYYCQQHYSTPLTFGAGTKLELKGGGGSGGGGSGGGGSQVQLQQPGAELVRPGASVKLSCKASGYSFTTYWMNWVKQRPGQGLEWIGMIHPSDSETRLNQKFKDKATLTVDKSSSTAYMQLSSPTSEDSAVYYCARSTMIATRAMDYWGQGTSVTVSSTRGKPIPNPLLGLDSTGSGEDLKNVFPPEVAVFEPSEAEISHTQKATLVCLATGFYPDHVELSWWVNGKEVHSGVCTDPQPLKEQPALNDSRYCLSSRLRVSATFWQNPRNHFRCQVQFYGLSENDEWTQDRAKPVTQIVSAEAWGRADCGFTSESYQQGVLSATILYEILLGKATLYAVLVSALVLMAMVKRKDSRGRAKRSGSGATNFSLLKQAGDVEENPGPSRGHMTEYKPTVRLATRDDVPRAVRTLAAAFADYPATRHTVDPDRHIERVTELQELFLTRVGLDIGKVWVADDGAAVAVWTTPESVEAGAVFAEIGPRMAELSGSRLAAQQQMEGLLAPHRPKEPAWFLATVGVSPDHQGKGLGSAVVLPGVEAAERAGVPAFLETSAPRNLPFYERLGFTVTADVEVPEGPRTWCMTRKPGA
modifications: Synthetic Immune Receptor (SIR)
B6: 012517-A12 (protein)
chain: MALPVTALLLPLALLLHAARPLEGKPIPNPLLGLDSTGSGEDLKNVFPPEVAVFEPSKAEIAHTQKATLVCLATGFYPDHVELSWWVNGKEVHSGVCTDPQPLKEQPALNDSRYCLSSRLRVSATFWQNPRNHFRCQVQFYGLSENDEWTQDRAKPVTQIVSAEAWGRADCGITSASYHQGVLSATILYEILLGKATLYAVLVSALVLMAMVKRKDSRGRAKRSGSGATNFSLLKQAGDVEENPGPTSMALPVTALLLPLALLLHAARPDIQMTQSPSSLSASVGDRVTITCKASQDVSTAVAWYQQKPGKAPKLLIYSASYRYTGVPDRFTGSGSGTDFTLTISSLQPEDFATYYCQQHYSTPPYTFGGGTKVEIKRGGGGSGGGGSGGGGSQVQLVQSGAEVKKPGASVKVSCKASGYAFSSSWMNWVRQAPGQGLEWIGRIYPGDGDTKYNGKFKGKATLTADKSTSTAYMELSSLRSEDTAVYYCARSTMIATGAMDYWGQGTLVTVSSTREQKLISEEDGSGIQNPDPAVYQLRDSKSSDKSVCLFTDFDSQTNVSQSKDSDVYITDKCVLDMRSMDFKSNSAVAWSNKSDFACANAFNNSIIPEDTFFPSSDVPCDVKLVEKSFETDTNLNFQNLSVIGFRILLLKVAGFNLLMTLRLWSSRAKRSGSGVKQTLNFDLLKLAGDVESNPGPSRGHMTEYKPTVRLATRDDVPRAVRTLAAAFADYPATRHTVDPDRHIERVTELQELFLTRVGLDIGKVWVADDGAAVAVWTTPESVEAGAVFAEIGPRMAELSGSRLAAQQQMEGLLAPHRPKEPAWFLATVGVSPDHQGKGLGSAVVLPGVEAAERAGVPAFLETSAPRNLPFYERLGFTVTADVEVPEGPRTWCMTRKPGA

tested on: target antigen-expressing cell line; experiment: Jurkat NFAT-GFP assay, coculture with target cell lines expressing the respective target antigen (summary Table 10A); assay type: cell-based, human; set-up: key: The signs +/−, +, 2+ etc. after the name of the cell lines indicate the relative degree of positivity on the Jurkat-NFAT-GFP assay as measured by the % GFP positive cells; +: relative degree of positivity on the Jurkat-NFAT-GFP assay as measured by the % GFP positive cells; 2+: relative degree of positivity on the Jurkat-NFAT-GFP assay as measured by the % GFP positive cells; details: coculture with L363 cells
How it was run: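 Read-out: % GFP+ cells by FACS. SIR-transduced, puromycin-selected Jurkat NFAT-GFP (IL-2 promoter reporter) cocultured ~4–18 h with target line, E:T ~1:2; parental cells as control; graded +/−, +, 2+ relative to parental.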

| Molecule | NFAT-GFP ASSAY Positive Cell lines |
| --- | --- |
| B1 | U266 (+), L363 (+) |
| B2 | (+/−) |
| B3 | (+) |
| B4 | + |
| B5 | U266 (+), L363 (+) |
| B6 | (+) |

same assay, conditions: coculture with U266 cells

| Molecule | NFAT-GFP ASSAY Positive Cell lines |
| --- | --- |
| B1 | U266 (+), L363 (+) |
| B2 | U266 (+/−), L363 |
| B3 | U266 (+/−), L363 |
| B4 | 2+ |
| B5 | U266 (+), L363 (+) |
| B6 | U266 (+/−), L363 |
